Measured values reported in paper PMC6749330, “Novel Peptide NIRF Optical Surgical Navigation Agents for HNSCC” (Molecules, 2019).
Where a SMILES comes first, the peptide text is derived from it. The star is where a group is joined. IRDye800CW = CC1(C)C(/C=C/C2=C(Oc3ccc(S(=O)(=O)O)cc3)C(=C/C=C3/N(CCCCS(=O)(=O)O)c4ccc(S(=O)(=O)O)cc4C3(C)C)/CCC2)=[N+](CCCCCC(=O)*)c2ccc(S(=O)(=O)[O-])cc21

Legend:
Cal 27 cells = test: Fluorescence microscopy assay on Cal 27 cells; format: cell-based, Human; conditions: 10 μM, 1 h and 24 h incubations, 37 °C, 800 nm emission
Experimental: Fluorescence microscopy assays. Cal 27 cells were seeded at 70,000/well in duplicate on eight-well chamber slides and allowed to attach overnight. Cell culture medium was replaced with 200 μL medium containing 10 μM peptides. Cells were incubated at 37 °C for 1–24 h followed by washing four times with 300 μL of HEPES buffer (25 mM HEPES 150 mM NaCl at pH 7.4) and once with the buffer containing 1 μg/mL DAPI. The chamber slide scaffold was then removed. Each chamber was then covered by a drop of aqua-poly mount and a coverslip, and sealed with clear nail polish. Cells were imaged with an Olympus IX81 microscope using an 800 nm emission filter set for IRDye800 conjugates and 461 nm for DAPI. Images were captured at 800 nm (red) for 5 s and at 461 nm (blue) with the automatic settings, at 200×. […]
the measured fluorescence.
The ratio of uptake at 2 h drops to about 13. Note:
Figure 2 data are normalized to fHN-1-IR800 that was run adjacent to each of the hybrid-peptides. f-HN1- […]
vertical scale magnitude of 4IphfHN17-IR800 between Figure 2 at ~4.5 and Figure S3 at ~13.
Figure S4.Fluorescence microscopy of 1 h and 24 h incubations of 10 µM IR800-labeled hybrid-peptides in […]
Cal 27 cells. […] HN1-IR800, HNJ-
Figure S5. Blood clearance of hybrid-peptide molecules from normal mice as described in Materials and Methods. […]

[1] = HPLC Rt as measure of relative lipophilicity; conditions: chromatographic, C18 RP (XBridge 150 × 4.6 mm, 3.5 μm), water/ACN 0.1% TFA, 20 to 50% ACN up to 10 min, 50 to 70% from 10 to 30 min, 1 mL/min, NIRF detection
In vitro serum stability = conditions: nu/nu, mouse
[2] = test system: FBS (fetal bovine serum) proteins; test: FBS protein binding assay; conditions: 25 μM in 100% FBS, room temperature 30 s, Amicon 10 K cutoff, 12,000 g 15 min, fluorescence, p < 0.05
Experimental: FBS protein binding assay. […] The concentration was chosen as the maximum expected in blood from an intravenous imaging dose of 40 nmol in a 20 g mouse, with a blood factor of 0.078 [40, 41]. Solutions (300 μL) were then loaded into an Amicon unit (0.5 mL, 10 K cutoff) and centrifuged at 12,000× g for 15 min [28]. Samples from the filtrate (50 μL), residual (5 μL), and original solution (5 μL) were loaded in duplicate into black wall 96-well plates containing 50 (for filtrate) or 95 (for residual and original) μL of PBS with 0.2% BSA. For an additional wash, 300 μL of PBS was then added into the Amicon unit. The unit was centrifuged as above. The same amounts of each of the parts were loaded into wells. Fluorescence intensity for each fraction was calculated by fraction volume × fluorescent unit/μL. Single factor ANOVA was used to analyze the data with p < 0.05 considered significant.

Row | Structure (SMILES) | Uptake in Cal 27 cells by fluorescence microscopy (Cal 27 cells) | HPLC Rt (relative lipophilicity) [1] | half-life at 6.4 μM (In vitro serum stability) | peptide bound to FBS proteins [2]
1 | CC1(C)C(/C=C/C2=C(Oc3ccc(S(=O)(=O)O)cc3)C(=C/C=C3/N(CCCCS(=O)(=O)O)c4ccc(S(=O)(=O)[O-])cc4C3(C)C)/CCC2)=[N+](CCCCCC(=O)O)c2ccc(S(=O)(=O)O)cc21 [IR800-COOH] | not observably taken up |  |  | 
2 | CC[C@H](C)[C@H](NC(=O)[C@H](CC(N)=O)NC(=O)[C@H](CC(C)C)NC(=O)[C@@H]1CCCN1C(=O)[C@H](CO)NC(=O)[C@@H](N)[C@@H](C)O)C(=O)N[C@@H](Cc1c[nH]cn1)C(=O)N[C@@H](CC(N)=O)C(=O)NCC(=O)N[C@@H](CCC(N)=O)C(=O)N[C@@H](CCCCNC(=O)CCCCC[N+]1=C(/C=C/C2=C(Oc3ccc(S(=O)(=O)O)cc3)C(=C/C=C3/N(CCCCS(=O)(=O)O)c4ccc(S(=O)(=O)O)cc4C3(C)C)/CCC2)C(C)(C)c2cc(S(=O)(=O)[O-])ccc21)C(=O)N[C@@H](CC(C)C)C(N)=O [HN1-IR800] (H-TSPLNIHNGQK(IRDye800CW)L-NH2) |  | 7.31 min | 50.4 min | ~52%
